# In the RNAGym collection of RNA variant scans (doi:10.1093/nar/gkz1192):
# B1: CPEB3 Ribozyme (parent)
# chain: UAACAGGGGGCCACAGCAGAAGCGUUCACGUCGCAGCCCCUGUCAGAUUCUGGUGAAUCUGCGAAUUCUGCUGUAUAUCUC
# Variants of: B1
# Assay: self-cleavage, relative activity (ratio to wild type); higher = more cleavage; in vitro, sequencing
# Summary of the method: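 After error-prone PCR and barcoding, CPEB3 ribozyme mutant libraries were transcribed with T7 RNA polymerase at 37°C for 5 hours, then given 15 min with DNase I before an EDTA stop, and they cleaved during both steps. Reverse transcription with template switching preceded Illumina sequencing. Relative activity divides a variant's cleaved/total read fraction by the unmutated ribozyme's. At least 5 reads were required per variant, and three batches were averaged.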
row,Variant,self-cleavage
1,UAACAGGGGGCCACAGCAGAAGCGCUCACGUCGCAGCCCCUGUCAGAUUCUGGUGAAUCUGCGGAUUCUGCUGUAUAUCUC [U25C A64G],0.3
2,UAACAGGGGGCCACAGCAGAAGCGCUCACGUCGCAGCCCCUGUCAGAUUCUGGUGAAUCUGCGUAUUCUGCUGUAUAUCUC [U25C A64U],0.26
3,UAACAGGGGGCCACAGCAGAAGCGCUAACGUCGCAGCCCCUGUCAGAUUCUGGUGAAUCUGCGAAUUCUGCUGUAUAUCUC [U25C C27A],0.41
4,UAACAGGGGGCCACAGCAGAAGCGCUUACGUCGCAGCCCCUGUCAGAUUCUGGUGAAUCUGCGAAUUCUGCUGUAUAUCUC [U25C C27U],0.36
5,UAACAGGGGGCCACAGCAGAAGCGAUCACGUCGCAGCCCCUGUCAGAUUCUGGUGAAUCUGCGAAUUCUGCUGUAAAUCUC [U25A U76A],0.25
6,UAACAGGGGGCCACAGCAGAAGCGAUCACGUCGCAGCCCCUGUCAGAUUCUGGUGAAUCUGCGAAUUCUGCUGUACAUCUC [U25A U76C],0.32
7,UAACAGGGGGCCACAGCAGAAGCGCUCACGUCGCAGCCCCUGUCAGAUUCUGGUGAAUCUGCGAUUUCUGCUGUAUAUCUC [U25C A65U],0.28
8,UAACAGGGGGCCACAGCAGAAGCGCUCACGUCGCAGCCCCUGUCAGAUUCUGGUGAAUCUGCGACUUCUGCUGUAUAUCUC [U25C A65C],0.45
9,UAACAGGGGGCCACAGCAGAAGCGCUCACGUCGCAGCCCCUGUCAGAUUCUGGUGAAUCUGCGAGUUCUGCUGUAUAUCUC [U25C A65G],0.3
10,UAACAGGGGGCCACAGCAGAAGCGCUCACGUCGCAGCCCCUGUCAGAUUCUGGUGAAUCUGCGAAUUCUGCUGUAUGUCUC [U25C A77G],0.27
11,UAACAGGGGGCCACAGCAGAAGCGCUCACGUCGCAGCCCCUGUCAGAUUCUGGUGAAUCUGCGAAUUCUGCUGUAUUUCUC [U25C A77U],0.26
12,UAACAGGGGGCCACAGCAGAAGCGCUCACGUCGCAGCCCCUGUCAGAUUCUGGUGAAUCUGCGAAUUCUGCUGUAUCUCUC [U25C A77C],0.3
13,UAACAGGGGGCCACAGCAGAAGCGCUCACGUCGCAGCCCCUGUCAGAUUCUGGUGAUUCUGCGAAUUCUGCUGUAUAUCUC [U25C A57U],0.31
14,UAACAGGGGGCCACAGCAGAAGCGCUCACGUCGCAGCCCCUGUCAGAUUCUGGUGACUCUGCGAAUUCUGCUGUAUAUCUC [U25C A57C],0.1
15,UAACAGGGGGCCACAGCAGAAGCGCUCACGUCGCAGCCCCUGUCAGAUUCUGGUGAGUCUGCGAAUUCUGCUGUAUAUCUC [U25C A57G],0.28
16,UAACAGGGGGCCACAGCAGAAGCGAUCACGUCGCAGCCCCUGUCAGAUUCUGGUGAAUCCGCGAAUUCUGCUGUAUAUCUC [U25A U60C],0.21
17,UAACAGGGGGCCACAGCAGAAGCGAUCACGUCGCAGCCCCUGUCAGAUUCUGGUGAAUCAGCGAAUUCUGCUGUAUAUCUC [U25A U60A],0.29

row,Variant,self-cleavage
1,UAACAGGGGGCCACAGCAGAAGCGAUCACGUCGCAGCCCCUGUCAGAUUCUGGUGAAUCUGCGAAUUCUGCUGUAUAGCUC [U25A U78G],0.37
2,UAACAGGGGGCCACAGCAGAAGCGAUCACGUCGCAGCCCCUGUCAGAUUCUGGUGAAUCUGCGAAUUCUGCUGUAUACCUC [U25A U78C],0.13
3,UAACAGGGGGCCACAGCAGAAGCGAUCACGUCGCAGCCCCUGUCAGAUUCUGGUGAAUCUGCGAAUUCUGCUGUAUAACUC [U25A U78A],0.19
4,UAACAGGGGGCCACAGCAGAAGCGCUCCCGUCGCAGCCCCUGUCAGAUUCUGGUGAAUCUGCGAAUUCUGCUGUAUAUCUC [U25C A28C],0.15
5,UAACAGGGGGCCACAGCAGAAGCGCUCGCGUCGCAGCCCCUGUCAGAUUCUGGUGAAUCUGCGAAUUCUGCUGUAUAUCUC [U25C A28G],0.28
6,UAACAGGGGGCCACAGCAGAAGCGCUCUCGUCGCAGCCCCUGUCAGAUUCUGGUGAAUCUGCGAAUUCUGCUGUAUAUCUC [U25C A28U],0.25
7,UAACAGGGGGCCACAGCAGAAGCGAUCACGUCGCAGCCCCUGUCAGAUUCUGGUGAAUCUGCGAAUUCUGCUGUAUAUCAC [U25A U80A],0.45
8,UAACAGGGGGCCACAGCAGAAGCGAUCACGUCGCAGCCCCUGUCAGAUUCUGGUGAAUCUGCGAAUUCUGCUGUAUAUCGC [U25A U80G],0.22
9,UAACAGGGGGCCACAGCAGAAGCGAUCACGUCGCAGCCCCUGUCAGAUUCUGGUGAAUCUGCGAAUUCUGCUGUAUAUCCC [U25A U80C],0.33
10,UAACAGGGGGCCACAGCAGAAGCGCUCACGUCGCAGCCCCUGUCCGAUUCUGGUGAAUCUGCGAAUUCUGCUGUAUAUCUC [U25C A45C],0.18
11,UAACAGGGGGCCACAGCAGAAGCGCUCACGUCGCAGCCCCUGUCUGAUUCUGGUGAAUCUGCGAAUUCUGCUGUAUAUCUC [U25C A45U],0.28
12,UAACAGGGGGCCACAGCAGAAGCGCUCACGUCGCAGCCCCUGUCGGAUUCUGGUGAAUCUGCGAAUUCUGCUGUAUAUCUC [U25C A45G],0.26
13,UAACAGGGGGCCACAGCAGAAGCGAUCACGUCGCAGCCCCUGUCAGAUUCUGGUGAAACUGCGAAUUCUGCUGUAUAUCUC [U25A U58A],0.27
14,UAACAGGGGGCCACAGCAGAAGCGAUCACGUCGCAGCCCCUGUCAGAUUCUGGUGAAGCUGCGAAUUCUGCUGUAUAUCUC [U25A U58G],0.1
15,UAACAGGGGGCCACAGCAGAAGCGAUCACGUCGCAGCCCCUGUCAGAUUCUGGUGAACCUGCGAAUUCUGCUGUAUAUCUC [U25A U58C],0.29
16,UAACAGGGGGCCACAGCAGAAGCGAUCACGUCGCAGCCCCUGUCAGAUUCUGGUGAAUCUGCGAAUACUGCUGUAUAUCUC [U25A U67A],0.46
17,UAACAGGGGGCCACAGCAGAAGCGAUCACGUCGCAGCCCCUGUCAGAUUCUGGUGAAUCUGCGAAUCCUGCUGUAUAUCUC [U25A U67C],0.19
